According to US20240301362A1:

Target: CD46 (UniProt P15529)
Assay: Kd determination, method not stated (column head 'Kd (Oleks)')

UniProt P15529, sequence (P15529 35-343): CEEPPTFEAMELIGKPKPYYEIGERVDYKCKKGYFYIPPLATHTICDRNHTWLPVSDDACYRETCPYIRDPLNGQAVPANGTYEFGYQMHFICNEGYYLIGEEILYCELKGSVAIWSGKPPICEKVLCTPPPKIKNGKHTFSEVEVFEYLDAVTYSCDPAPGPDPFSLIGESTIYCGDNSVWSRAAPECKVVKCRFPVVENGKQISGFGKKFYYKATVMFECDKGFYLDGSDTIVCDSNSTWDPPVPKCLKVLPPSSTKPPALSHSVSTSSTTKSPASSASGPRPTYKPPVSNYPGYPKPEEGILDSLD

| Substance | Kd [nM] |
| --- | --- |
| Ad11 knob (from UniProt P35774 123-325) | 11.2 |
| wtAd35(207Asp) knob | 15 |
| Mutated Ad35 Knob A8: Ile192Val Ile256Val (from UniProt Q92854) | 13.7 |
